These results are taken from PMC3938055.

One test deals with CENP-S-EGFP (human) (UniProt Q8N2Z9). Put plainly: FRET or BRET; acceptor photobleaching FRET at centromeres in living cells; EGFP donor, mCherry acceptor bleached in a 4-10 µm^2 region; E_FRET against EVAR of an unbleached region, Mann-Whitney rank-sum test. (In BRET a luciferase serves as donor, and the signal depends on an acceptor being close.)
The target in another test is EGFP-CENP-S (human) (UniProt Q8N2Z9). Described as above.

In the test with CENP-S-EGFP (human), “CENP-T-mCherry (from UniProt Q96BT3 1-561) (natural protein)” displayed an E FRET of 4.15 and a ΔE (E FRET – EVAR) of 4.5. In the test with EGFP-CENP-S (human), this substance came in with an E FRET of 3 and a ΔE (E FRET – EVAR) of 4.5.
